Consider eight molecules from PMC9346951 (Nature, 2022).

Residue numbers refer to the chain shown, from its start. Numbers in names are those of the source. Where two headings read alike, the source gives them in different places.

One data set has as its target T1, TGA3 NID (Arabidopsis thaliana, UniProt Q39234).
T1 sequence (Q39234 160-384): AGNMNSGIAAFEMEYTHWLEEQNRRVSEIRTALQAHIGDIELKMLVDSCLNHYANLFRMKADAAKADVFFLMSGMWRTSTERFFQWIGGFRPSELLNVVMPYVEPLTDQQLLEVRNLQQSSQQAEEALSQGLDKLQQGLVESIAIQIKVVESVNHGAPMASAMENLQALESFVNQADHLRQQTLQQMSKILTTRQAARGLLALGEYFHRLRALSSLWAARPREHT
Put plainly: X-ray crystal structure. Type of data set: binding. The note with it: co-purified from E. coli expression; crystals at pH 5.0, 20 °C.

Data set [1] concerns the target T2, TGA3 (Arabidopsis thaliana, UniProt Q39234 87-384).
T2 sequence: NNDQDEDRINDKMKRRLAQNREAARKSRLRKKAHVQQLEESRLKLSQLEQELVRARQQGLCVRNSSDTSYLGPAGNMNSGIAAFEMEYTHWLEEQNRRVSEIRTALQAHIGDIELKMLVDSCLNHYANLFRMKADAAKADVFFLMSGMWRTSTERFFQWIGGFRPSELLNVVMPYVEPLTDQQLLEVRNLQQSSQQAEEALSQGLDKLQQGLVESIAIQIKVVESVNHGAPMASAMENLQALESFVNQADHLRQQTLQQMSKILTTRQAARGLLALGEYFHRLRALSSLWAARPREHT
Put plainly: EMSA.

Data set [2] concerns the molecule itself. Put plainly: oxidation with hydrogen peroxide, non-reducing SDS–PAGE.
The target in another data set is TGA3;NPR1 (Arabidopsis thaliana;Arabidopsis …, UniProt Q39234;P93002 87-384;1-593, |). Put plainly: EMSA. On the technique in general: In EMSA bound probe runs differently from free probe, usually more slowly.
Data set [3] concerns the target T2, TGA3. Put plainly: EMSA. The source holds these as a separate data set.
Another data set deals with NPR1 (Arabidopsis thaliana, UniProt P93002 1-593). Put plainly: EMSA.
The target of data set [4] is T3, Full-length Arabidopsis thaliana NPR1 (NPR1–Strep, insect cells) (Arabidopsis thaliana), P93002.
T3 chain: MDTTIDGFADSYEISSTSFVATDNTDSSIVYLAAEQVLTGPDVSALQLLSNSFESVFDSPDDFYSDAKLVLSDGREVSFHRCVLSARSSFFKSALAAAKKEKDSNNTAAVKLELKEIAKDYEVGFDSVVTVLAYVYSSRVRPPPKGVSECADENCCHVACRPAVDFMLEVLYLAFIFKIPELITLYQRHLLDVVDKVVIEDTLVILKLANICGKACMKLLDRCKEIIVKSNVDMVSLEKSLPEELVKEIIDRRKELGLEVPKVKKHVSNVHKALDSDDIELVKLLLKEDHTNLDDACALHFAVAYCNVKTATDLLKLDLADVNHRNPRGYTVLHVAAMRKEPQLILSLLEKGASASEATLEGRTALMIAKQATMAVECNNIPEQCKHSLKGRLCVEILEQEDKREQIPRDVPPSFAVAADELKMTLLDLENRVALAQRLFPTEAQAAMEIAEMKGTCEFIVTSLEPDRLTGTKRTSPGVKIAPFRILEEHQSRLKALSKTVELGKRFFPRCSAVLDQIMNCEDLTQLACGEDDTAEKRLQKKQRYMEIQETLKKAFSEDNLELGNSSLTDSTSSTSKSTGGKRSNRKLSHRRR
Kind of data set: cross-linking. The note with it: remark: other sources report otherwise.

Data set [5] addresses T4, Full-length Arabidopsis NPR1 (NPR1–Strep3, E. coli) (Arabidopsis thaliana, UniProt P93002 1-593).
T4 sequence (looked up): T3 chain
Put plainly: cryo-EM structure.

`CCCCCCCCCCCCCCCC(=O)O` [palmitic acid]: at TGA3 NID, the “X-ray crystal structure (1.5 Å); LC-ESI/MS of extracted lipid” value was “a palmitic acid was found inside the NID”.

B1: LS5-/LS7- (dsDNA)
DNA 1: GGGCTAAAAAAAAAGTAAAATAGAAAAAAAAAGAGGG
DNA 2: CCCTCTTTTTTTTTCTATTTTACTTTTTTTTTAGCCC
B1: in the data set with TGA3 [1], the binding result is “no binding”.

B2: NPR1 BTB/BHB (Thr39–Lys262) npr1(C82A) (domain or fragment, Arabidopsis thaliana, UniProt P93002 39-262, looked up)
chain: TGPDVSALQLLSNSFESVFDSPDDFYSDAKLVLSDGREVSFHRAVLSARSSFFKSALAAAKKEKDSNNTAAVKLELKEIAKDYEVGFDSVVTVLAYVYSSRVRPPPKGVSECADENCCHVACRPAVDFMLEVLYLAFIFKIPELITLYQRHLLDVVDKVVIEDTLVILKLANICGKACMKLLDRCKEIIVKSNVDMVSLEKSLPEELVKEIIDRRKELGLEVPK
Take B2: the binding result in data set [2] is on record as “binds”.

B3: WT NPR1 BTB/BHB (Thr39–Lys262) (domain or fragment, Arabidopsis thaliana, UniProt P93002 39-262, looked up)
chain: B2 chain with A44C
As to B3, the binding result in data set [2] is recorded as “binds”.

B4: NPR1 BTB/BHB (Thr39–Lys262) npr1(C212V/C216A/C223L) (domain or fragment, Arabidopsis thaliana, UniProt P93002 39-262, looked up)
chain: B2 chain with A44C, C174V, C178A, C185L
Regarding B4, the binding result in data set [2] is reported as “binds”.

B5: LS5/LS7 (dsDNA)
DNA 1: GGGCTATGACGTAAGTAAAATAGTGACGTAGAGAGGG
DNA 2: CCCTCTCTACGTCACTATTTTACTTACGTCATAGCCC
As to B5, the binding result with TGA3;NPR1 is given as “binds”; in the data set with TGA3 [3], “binds”; with NPR1, “no binding”.

B6: Full-length Arabidopsis thaliana NPR1 (NPR1–Strep, insect cells), P93002 1-593 (natural protein)
chain: T3 chain
Broadly, the stoichiometry N is a count of units in the complex or per binding partner. As to B6, in data set [4], the stoichiometry N is 2.

B7: Arabidopsis TGA3 (Asn87–Thr384) (domain or fragment, Arabidopsis thaliana, UniProt Q39234 87-384, looked up)
chain: T2 sequence
Turning to B7, the binding result in data set [5] is given as “binds”.
